The values below come from PMC10018367.

Holding throughout (test): EMSA
In general terms: In EMSA bound probe runs differently from free probe, usually more slowly.

Series [1] deals with T1, PARP1 (Homo sapiens, UniProt P09874 1-1014).
The target in series [2] is T1, PARP1. This is another data set of the same source.
The target of series [3] is T1, PARP1. The source holds these as a separate data set.
Series [4] concerns the target T1, PARP1. This is another data set of the same source.

Where two headings read alike, the source gives them in different places.

T1 sequence (P09874 whole entry): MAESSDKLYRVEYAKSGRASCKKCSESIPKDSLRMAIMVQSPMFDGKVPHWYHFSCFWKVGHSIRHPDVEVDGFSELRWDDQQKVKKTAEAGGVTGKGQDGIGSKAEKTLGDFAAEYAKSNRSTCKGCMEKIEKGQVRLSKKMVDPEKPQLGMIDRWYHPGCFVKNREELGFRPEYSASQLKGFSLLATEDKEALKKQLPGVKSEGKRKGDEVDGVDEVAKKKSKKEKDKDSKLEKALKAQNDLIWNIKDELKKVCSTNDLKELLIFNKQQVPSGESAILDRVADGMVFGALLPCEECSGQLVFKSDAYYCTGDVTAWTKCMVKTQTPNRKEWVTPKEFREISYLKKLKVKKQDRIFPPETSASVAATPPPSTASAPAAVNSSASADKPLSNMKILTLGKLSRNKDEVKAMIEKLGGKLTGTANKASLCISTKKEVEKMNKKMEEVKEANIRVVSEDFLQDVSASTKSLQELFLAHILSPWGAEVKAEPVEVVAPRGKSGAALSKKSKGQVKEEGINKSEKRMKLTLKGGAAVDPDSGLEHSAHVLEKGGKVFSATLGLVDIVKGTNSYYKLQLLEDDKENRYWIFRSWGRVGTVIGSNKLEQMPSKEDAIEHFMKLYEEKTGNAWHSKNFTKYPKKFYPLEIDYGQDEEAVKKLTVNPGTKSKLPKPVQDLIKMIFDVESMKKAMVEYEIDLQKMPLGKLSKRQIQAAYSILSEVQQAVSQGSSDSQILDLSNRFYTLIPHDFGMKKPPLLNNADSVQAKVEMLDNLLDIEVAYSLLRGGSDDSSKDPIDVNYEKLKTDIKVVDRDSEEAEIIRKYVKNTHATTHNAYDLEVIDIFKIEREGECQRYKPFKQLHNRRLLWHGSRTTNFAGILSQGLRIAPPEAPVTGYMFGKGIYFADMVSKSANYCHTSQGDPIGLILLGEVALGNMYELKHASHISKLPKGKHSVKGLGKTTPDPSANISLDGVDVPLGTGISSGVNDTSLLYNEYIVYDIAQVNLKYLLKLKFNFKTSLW

B1: ssDNA JYM3702 (ssDNA)
DNA: GGGTGAACCTGCAGGTGGGCGGCTGCTCATCGTAGGTTAGTTGGTAGAATTCGGCAGCGTC
For B1, in the series with PARP1 [1], the binding result is recorded as “binds”.

B2: R-loop (JYM3702 + JYM3703 + JYM3704) (mixed)
DNA 1: B1 DNA
DNA 2: GACGCTGCCGAATTCTACCAGTGCCTTGCTAGGACATCTTTGCCCACCTGCAGGTTCACCC
RNA: AAAGAUGUCCUAGCAAGGCAC
modifications: RNA strand 3
For the molecule B2, in the series with PARP1 [2], the binding result is given as “binds”.

B3: D-loop (JYM3702 + JYM3703 + JYM3705) (structured_DNA)
DNA 1: B1 DNA
DNA 2: B2 DNA 2
DNA 3: AAAGATGTCCTAGCAAGGCAC
Consider B3, for which, in the series with PARP1 [3], the binding result is recorded as “binds”.

As for AAAGAUGUCCUAGCAAGGCAC (ssRNA) [ssRNA JYM3704], the binding result in the series with PARP1 [4] is “no binding”.
